No end group written: not given here. *: point of attachment. Myristoyl = CCCCCCCCCCCCCC(=O)*
Key:
[1] = target: two different p53 missense mutations (A161T and R175H) expressed in U266 and OPM2 multiple myeloma cells; experiment: cell-based or functional assay
Full length p53 = experiment: MST; FIG. 3B; details: chains peptide; modification not given

| Kd (Full length p53) [µM] | Binder | IC50, cell viability (CellTiter-Glo, 72 h) of multiple myeloma cell lines [1] [µM] |
| --- | --- | --- |
| – | Myristoyl-RRHSTPHPD [pCAP 250 (SEQ ID NO: 1)] | 1.5 to 3 |
| 30 | RRHSTPHPD [pCAP250] | – |

Reference: patent US20220251159A1
